Source: patent publication US20210238276A1 (INTEGRAL MOLECULAR, published 2021)

Legend:
Experiment in all cases: flow cytometry, alanine-scan library in HEK-293T, with cytochalasin B
hsGLUT4 M112A = target: T1, hsGLUT4 M112A (human, UniProt P14672 1-509)
T1 sequence: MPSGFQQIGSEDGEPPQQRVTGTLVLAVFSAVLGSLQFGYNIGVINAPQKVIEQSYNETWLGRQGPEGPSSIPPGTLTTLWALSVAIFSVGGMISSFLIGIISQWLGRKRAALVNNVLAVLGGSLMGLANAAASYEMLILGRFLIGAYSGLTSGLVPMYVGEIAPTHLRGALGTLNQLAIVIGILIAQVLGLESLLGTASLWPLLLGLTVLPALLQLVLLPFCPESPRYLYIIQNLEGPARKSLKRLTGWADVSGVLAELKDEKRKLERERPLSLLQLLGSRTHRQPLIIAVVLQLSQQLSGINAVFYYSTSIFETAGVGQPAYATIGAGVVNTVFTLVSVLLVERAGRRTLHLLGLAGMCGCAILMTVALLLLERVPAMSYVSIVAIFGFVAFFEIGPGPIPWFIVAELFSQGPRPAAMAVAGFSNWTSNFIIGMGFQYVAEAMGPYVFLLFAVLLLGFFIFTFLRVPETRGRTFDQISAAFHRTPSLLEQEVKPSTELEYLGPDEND
In short: (§1)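 HEK-293T cells expressing individual GLUT4 alanine mutants were stained 48 h post-transfection with anti-GLUT4 scFv MAbs (2 μg/ml), then biotinylated secondary and streptavidin-PerCP, and read by high-throughput flow cytometry. Where used, cytochalasin B (10 uM final) was given for 30 min before and during primary antibody staining.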

hsGLUT4 Q295A = target: T2, hsGLUT4 Q295A (human, UniProt P14672 1-509)
T2 sequence: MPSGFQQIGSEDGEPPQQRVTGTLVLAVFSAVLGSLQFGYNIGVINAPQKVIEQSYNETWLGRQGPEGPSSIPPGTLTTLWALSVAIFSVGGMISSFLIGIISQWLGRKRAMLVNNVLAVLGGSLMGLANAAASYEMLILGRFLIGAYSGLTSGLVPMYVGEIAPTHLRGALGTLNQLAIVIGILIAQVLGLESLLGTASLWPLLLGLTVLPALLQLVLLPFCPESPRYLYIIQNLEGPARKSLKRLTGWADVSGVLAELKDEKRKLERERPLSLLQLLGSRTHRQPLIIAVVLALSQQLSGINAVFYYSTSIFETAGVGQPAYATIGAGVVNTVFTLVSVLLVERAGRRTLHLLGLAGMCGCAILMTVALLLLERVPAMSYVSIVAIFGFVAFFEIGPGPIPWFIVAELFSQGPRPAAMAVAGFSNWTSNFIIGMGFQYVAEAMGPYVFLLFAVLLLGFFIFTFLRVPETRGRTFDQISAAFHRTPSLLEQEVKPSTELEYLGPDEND
In short: as §1

hsGLUT4 S310A = target: T3, hsGLUT4 S310A (human, UniProt P14672 1-509)
T3 sequence: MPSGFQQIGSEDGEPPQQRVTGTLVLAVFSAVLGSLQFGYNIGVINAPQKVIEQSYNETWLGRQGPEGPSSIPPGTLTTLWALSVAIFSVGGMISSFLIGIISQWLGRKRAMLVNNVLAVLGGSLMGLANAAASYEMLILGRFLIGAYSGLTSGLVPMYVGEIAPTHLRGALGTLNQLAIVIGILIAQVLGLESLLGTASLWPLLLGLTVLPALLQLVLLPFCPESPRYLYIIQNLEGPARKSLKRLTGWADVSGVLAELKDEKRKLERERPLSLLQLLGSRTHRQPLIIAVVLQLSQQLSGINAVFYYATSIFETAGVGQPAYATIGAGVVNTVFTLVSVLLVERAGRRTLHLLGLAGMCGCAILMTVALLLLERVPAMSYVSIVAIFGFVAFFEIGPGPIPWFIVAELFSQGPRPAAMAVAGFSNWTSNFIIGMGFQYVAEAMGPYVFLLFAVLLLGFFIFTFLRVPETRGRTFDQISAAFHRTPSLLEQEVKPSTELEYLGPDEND
In short: as §1

hsGLUT4 G348A = target: T4, hsGLUT4 G348A (human, UniProt P14672 1-509)
T4 sequence: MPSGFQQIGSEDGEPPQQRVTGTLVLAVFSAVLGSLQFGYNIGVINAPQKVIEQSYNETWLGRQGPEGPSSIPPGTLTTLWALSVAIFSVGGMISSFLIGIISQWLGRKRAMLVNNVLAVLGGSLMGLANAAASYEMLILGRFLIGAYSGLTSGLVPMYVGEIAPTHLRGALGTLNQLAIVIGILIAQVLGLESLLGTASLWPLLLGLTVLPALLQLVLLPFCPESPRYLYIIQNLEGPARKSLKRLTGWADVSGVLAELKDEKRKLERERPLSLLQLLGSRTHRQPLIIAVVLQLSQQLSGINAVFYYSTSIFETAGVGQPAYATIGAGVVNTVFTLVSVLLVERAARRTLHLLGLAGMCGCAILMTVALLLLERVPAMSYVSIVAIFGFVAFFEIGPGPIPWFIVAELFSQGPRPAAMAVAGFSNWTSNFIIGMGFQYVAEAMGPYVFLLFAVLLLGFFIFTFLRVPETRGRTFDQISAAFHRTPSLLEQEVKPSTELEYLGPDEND
In short: as §1

- % of binding to wild type GLUT4 (hsGLUT4 M112A): 23%
- % of binding to wild type GLUT4 (hsGLUT4 Q295A): 89%
- % of binding to wild type GLUT4 (hsGLUT4 S310A): 20%
- % of binding to wild type GLUT4 (hsGLUT4 G348A): 79%
B1: AB102 (Fc fusion)
scFv: ALTQPSSVSANLGGTVKITCSGGGSYGYGWYQQKSPGSAPVTVIYSNDQRPSDIPSRFSGSKSGSTATLTITGVRAEDEAIYYCGSTDSDYVGIFGAGTTLTVLGQSSRSSGGGGSSGGGGSAVTLDESGGGLQTPGGTLSLVCKASGFDFSSYATIWVRQAPGKGLEWVAGISGTGTGSSTGYAPAVKGRATISRDNGQSTVRLQLNNLRAEDTGSYFCAKSTGYGDSWIYPDSIDAWGHGTEVIVSS
notes: also called MAb AB102; not shown: Fc fragment of human IgG1, cloned in frame with the scFv
